Data: patent US12552866B2, “Internalizing binding molecules targeting receptors involved in cell proliferation or in cell differentiation” (LinXis B.V., priority 2019, dated 2026)
“Also recorded” adds a separate entry of the source. Like-named read-outs stand apart in the source and are kept apart here.

Assays:
[1] = target: T1, PDGFRB ECD (Homo sapiens, UniProt P09619); experiment: Competition ELISA with SP02P and SP26P on PDGFRB ECD; type: binding; settings: versus SPO2P
T1 construct: assay with SP02P and SP26P on PDGFRB ECD
Description: Competition ELISAs were carried out to determine whether the hPDGFRB specific binders (FIG. 5) and rPDGFRB specific binders (FIG. 6) recognize distinct epitopes on hPDGFRB or rPDGFRB, respectively. The hPDGFRB binding VHHs SPO2P, SP05P, SP12P and SP14P and the rPDGFRB binder SP26P were conjugated to IRDye800CW (VHH-IRDye800CW, conjugation method as described in example 9.2) and each conjugated VHH was mixed with unconjugated competitor in trifold serial dilutions and incubated on immobilized […]. Two VHHs share (part of) the same epitope when the fluorescence signal of the VHH-IRDye800CW decreases upon increasing concentration of unconjugated VHH. Furthermore, using a similar method as described in section 5.1, binding epitope competition between the hPDGFRB binding VHH SPO2P and rPDGFRB binding VHH

[2] = target: rat PDGFRB ectodomain (ECD); experiment: Affinity (KD in nM) | PDGFRβ ECD
Description: (§1) Table printed on a drawing sheet, FIG. 6
Head of the field: Affinity (KD in nM) | PDGFRβ ECD
(§2) The patent's description of the figure: FIG. 6. Amino acid sequence of rat PDGFRB VHHs (CDRs underlined). Affinities are measured on rat PDGFRB ectodomain (ECD) and squamous cell carcinoma cells transfected with rat PDGFRB receptor (SCC-rPDGFRB). Data of the competition assays is included to categorize the VHHs in different epitope groups.
(§3) First copying reader's note: Each sequence is printed over two lines and joined here by a blank; the underlining that marks the CDRs is not reproduced.
Where the first naming reader finds the target: description_of_the_figure: Affinities are measured on rat PDGFRB ectodomain (ECD) and squamous cell carcinoma cells transfected with rat PDGFRB receptor (SCC-rPDGFRB).

[3] = target: T2, rat PDGFRB receptor (Rattus norvegicus, UniProt Q05030); experiment: Affinity (KD in nM) | SCC-rPDGFRβ cells
T2 construct: GFP; expressed in transfected cells; host or cells: SCC VII cells
Description: as §1
Head of the field: Affinity (KD in nM) | SCC-rPDGFRβ cells
as §2, §3
Where the first naming reader finds the target: description_of_the_figure: squamous cell carcinoma cells transfected with rat PDGFRB receptor (SCC-rPDGFRB)

[4] = tested on: BDL rats (portal hypertension); experiment: Portal pressure and mean arterial pressure in BDL and SHAM rats after i.v. dosing; type: in vivo, rat; settings: 5 mg/kg i.v.
From the text: To evaluate in vivo functionality, 13F11-13E8-ABD was conjugated to a Y27632-maleimide modified functional moiety (1e) (the test conjugate) as outlined in example 9.2. To provide a comparator, a similar amount of 13F11-13E8-ABD was conjugated to N-ethylmaleimide in a parallel and similar preparation (the mock conjugate).
To establish animals displaying portal hypertension (Klein et al, Fibrosis: Methods and Protocols. Methods in Molecular Biology. 2017 (1627): 91-122.), Sprague-Dawley rats were subjected to bile duct ligation (BDL) through median laparotomy under ketamine/xylazine-induced anaesthesia i.p. (BDL rats). To provide healthy controls, a second cohort of rats was subjected to the same surgical procedure except for actual ligation of the bile duct (SHAM rats). Surgery was followed-up with pain control medication (carprofen s.c.). Approximately five weeks after surgery, ketamine/xylazine anesthetized rats were subjected to median laparotomy, after which one catheter was inserted through an ileocecal vein to the portal vein, and one catheter was inserted into the femoral artery. The catheters were connected to pressure recording equipment, for assessment of portal pressure and mean arterial pressure, respectively.
(§4) After catheterization and hemodynamic stabilization, rats were dosed with 5 mg/kg test conjugate or mock conjugate i.v. through the lateral tail vein and pressures were monitored continuously (example 13.1.). One hour after dosing, animals were sacrificed after which tissues were isolated for ex vivo analysis (example 13.2.).

[5] = target: T3, IGF2R (Rattus norvegicus, UniProt G3V824); experiment: In situ detection of infused conjugate in liver cryo-sections (in vivo targeting of IGF2R)
T3 construct: from tissue; host or cells: cryo-sections of liver and other tissues, and liver in vivo, of Sprague-Dawley BDL and SHAM rats
Description: as §4
After isolation, livers obtained from test conjugate-infused BDL and SHAM rats were fixated with paraformaldehyde, soaked in 30% (w/v) sucrose in PBS, and sectioned using cryo-microtome. To detect the test conjugate in situ, tissue sections were stained with a rabbit polyclonal anti-VHH antiserum recognizing the 13F11-13E8 moiety of the conjugate, followed by an anti-rabbit antibody conjugated to the fluorophore Alexa-488 for visualization by confocal fluorescence microscopy (cf. example 12). […] Further accumulation of the test conjugate in the BDL liver beyond this one-hour time point was likely to have occurred.

[6] = target: T4, hIGF2R-ECD (Homo sapiens, UniProt P11717); experiment: Binding assay / titration ELISA on recombinant hIGF2R-ECD; settings: KD+SEM, n=2, read-out: calculated affinity (KD)
T4 construct: recombinant human extracellular domain of IGF2R (hIGF2R-ECD)
Description: The 15 unique hIGF2R binders (Example 1.1, FIG. 2) were produced and purified as described in examples 2 and 3. The apparent affinities were determined with binding assays on hIGF2R-ECD. Briefly, three-fold serial VHH dilutions, starting from 1 μM, were added onto hIGF2R-ECD coated plates. After 2 hours of incubation, plates were washed and bound VHH was detected using a VHH-specific IgG antibody, followed by an IRD800CW-conjugated IgG-specific antibody. […] VHH 13F11 was also produced with a C-terminal free cysteine and conjugated using maleimide chemistry to Alexa Fluor 647 (13F11-A647 in FIG. 8A, conjugation method as described in example 9.2). A titration ELISA (direct read out at 647 nm) with this construct was carried out on hIGF2R-ECD to determine whether the affinity was affected after site directed conjugation (FIG. 8B). The KD and Bmax were calculated in Graphpad (version 8.3), using one-site specific binding analysis (FIG. 8C).
Based on their high affinity and binding to non-overlapping receptor epitopes, VHHs 13F11 and 13E8 were selected for the design of biparatopic and bivalent VHH constructs. Two VHHs were fused with a flexible linker, consisting of three Gly-Gly-Gly-Gly-Ser repeats (FIG. 8A). The sequences were codon optimized for expression in E. coli and obtained as synthesized DNA fragments from GeneArt. The DNA fragments encoding VHHs were cloned into a vector pET28-based vector introducing a C-terminal free cysteine for site-directed conjugation and His6 tag for IMAC purification (FIG. 8A). The constructs were produced and purified as described in example 3. The constructs were conjugated to Alexa Fluor 647 (conjugation method as described in example 9.2) and titration ELISAs on recombinant hIGF2R-ECD (as described in example 4.1) were performed to determine the KD and Bmax (calculated in Graphpad (version 8.3), using one-site specific binding analysis) (FIG. 8C).
Next, 13F11-13E8 was genetically re-engineered to include an in vivo half-life extender in the form of an albumin binding domain (ABD) as described by Johansson et al (Structure, specificity, and mode of interaction for bacterial albumin-binding modules, J. Biol. Chem. 2002 (277): 8114-8120) and subsequently produced and purified as described in Example 3. Subsequently, 13F11-13E8-ABD was conjugated to IRDye800CW (F11E8-ABD-IRD800, conjugation method as described in example 9.2) and the binding affinities of the biparatopic VHH as well as the ABD unit was determined. […] The binding affinity (KD) of F11-E8-ABD-IRD800 to rat serum albumin (RSA) was 30 nM and to mouse serum albumin (MSA) and human serum albumin (HSA) the binding affinity was approximately 200 nM.

[7] = tested on: A549 cells (IGF2R positive); experiment: Internalization in A549 cells (acid wash, confocal); type: cell-based, human; settings: 25 nM VHH conjugated to Alexa Fluor 647
Description: (§5) To assess if monovalent 13F11 and biparatopic 13F11-13E8 are internalized in the hIGF2R expressing cells, A549 cells (FIG. 16A) and NIH 3T3 2.2 cells transiently transfected with hIGF2R (FIG. 16B) were incubated with 25 nM VHH conjugated to Alexa Fluor 647 (conjugation method as described in example 9.2). A Mouse anti-IGF2R mAb was included to detect IGF2R expression on the hIGF2R transfected cells NIH 3T3 2.2 (FIG. 16B, right column), the mAb was detected with a goat anti-mouse mAb conjugated to Alexa Fluor 555. Additionally, mock transfected NIH 3T3 2.2 cells were incubated with 13F11 and 13F11-13E8 (FIG. 16C). […]
(§6) (FIG. 10D). […] The rate of internalization (endocytic rate constant, ke) of biparatopic constructs 13F11-13E8 and 13E8-13F11 was determined with a kinetic internalization assay on SCC-VII cells transfected with hIGF2R and rIGF2R. […] Subsequently, cells were washed with cold PBS and the non-internalized VHH construct (bound fraction) was separated from the internalized construct (internalized fraction) using an acid-wash, as described above, after which the fluorescence of both fractions were measured. […] Internalization was also observed in rIGF2R expressing SCC cells as a clear increase in fluorescence over time can be shown in FIG. 17 (ke around 0.7 min-1).

[8] = tested on: NIH 3T3 2.2 cells transiently transfected with hIGF2R; experiment: Internalization in NIH 3T3 2.2 cells transiently transfected with hIGF2R; type: cell-based, human; settings: 25 nM VHH conjugated to Alexa Fluor 647
Description: as §5, §6

[9] = tested on: mock transfected NIH 3T3 2.2 cells; experiment: Internalization in mock transfected NIH 3T3 2.2 cells; type: cell-based; settings: 25 nM VHH conjugated to Alexa Fluor 647
Description: as §5, §6

[10] = one hour after 5 mg/kg i.v., anti-VHH staining

T3 sequence (G3V824 36-2481): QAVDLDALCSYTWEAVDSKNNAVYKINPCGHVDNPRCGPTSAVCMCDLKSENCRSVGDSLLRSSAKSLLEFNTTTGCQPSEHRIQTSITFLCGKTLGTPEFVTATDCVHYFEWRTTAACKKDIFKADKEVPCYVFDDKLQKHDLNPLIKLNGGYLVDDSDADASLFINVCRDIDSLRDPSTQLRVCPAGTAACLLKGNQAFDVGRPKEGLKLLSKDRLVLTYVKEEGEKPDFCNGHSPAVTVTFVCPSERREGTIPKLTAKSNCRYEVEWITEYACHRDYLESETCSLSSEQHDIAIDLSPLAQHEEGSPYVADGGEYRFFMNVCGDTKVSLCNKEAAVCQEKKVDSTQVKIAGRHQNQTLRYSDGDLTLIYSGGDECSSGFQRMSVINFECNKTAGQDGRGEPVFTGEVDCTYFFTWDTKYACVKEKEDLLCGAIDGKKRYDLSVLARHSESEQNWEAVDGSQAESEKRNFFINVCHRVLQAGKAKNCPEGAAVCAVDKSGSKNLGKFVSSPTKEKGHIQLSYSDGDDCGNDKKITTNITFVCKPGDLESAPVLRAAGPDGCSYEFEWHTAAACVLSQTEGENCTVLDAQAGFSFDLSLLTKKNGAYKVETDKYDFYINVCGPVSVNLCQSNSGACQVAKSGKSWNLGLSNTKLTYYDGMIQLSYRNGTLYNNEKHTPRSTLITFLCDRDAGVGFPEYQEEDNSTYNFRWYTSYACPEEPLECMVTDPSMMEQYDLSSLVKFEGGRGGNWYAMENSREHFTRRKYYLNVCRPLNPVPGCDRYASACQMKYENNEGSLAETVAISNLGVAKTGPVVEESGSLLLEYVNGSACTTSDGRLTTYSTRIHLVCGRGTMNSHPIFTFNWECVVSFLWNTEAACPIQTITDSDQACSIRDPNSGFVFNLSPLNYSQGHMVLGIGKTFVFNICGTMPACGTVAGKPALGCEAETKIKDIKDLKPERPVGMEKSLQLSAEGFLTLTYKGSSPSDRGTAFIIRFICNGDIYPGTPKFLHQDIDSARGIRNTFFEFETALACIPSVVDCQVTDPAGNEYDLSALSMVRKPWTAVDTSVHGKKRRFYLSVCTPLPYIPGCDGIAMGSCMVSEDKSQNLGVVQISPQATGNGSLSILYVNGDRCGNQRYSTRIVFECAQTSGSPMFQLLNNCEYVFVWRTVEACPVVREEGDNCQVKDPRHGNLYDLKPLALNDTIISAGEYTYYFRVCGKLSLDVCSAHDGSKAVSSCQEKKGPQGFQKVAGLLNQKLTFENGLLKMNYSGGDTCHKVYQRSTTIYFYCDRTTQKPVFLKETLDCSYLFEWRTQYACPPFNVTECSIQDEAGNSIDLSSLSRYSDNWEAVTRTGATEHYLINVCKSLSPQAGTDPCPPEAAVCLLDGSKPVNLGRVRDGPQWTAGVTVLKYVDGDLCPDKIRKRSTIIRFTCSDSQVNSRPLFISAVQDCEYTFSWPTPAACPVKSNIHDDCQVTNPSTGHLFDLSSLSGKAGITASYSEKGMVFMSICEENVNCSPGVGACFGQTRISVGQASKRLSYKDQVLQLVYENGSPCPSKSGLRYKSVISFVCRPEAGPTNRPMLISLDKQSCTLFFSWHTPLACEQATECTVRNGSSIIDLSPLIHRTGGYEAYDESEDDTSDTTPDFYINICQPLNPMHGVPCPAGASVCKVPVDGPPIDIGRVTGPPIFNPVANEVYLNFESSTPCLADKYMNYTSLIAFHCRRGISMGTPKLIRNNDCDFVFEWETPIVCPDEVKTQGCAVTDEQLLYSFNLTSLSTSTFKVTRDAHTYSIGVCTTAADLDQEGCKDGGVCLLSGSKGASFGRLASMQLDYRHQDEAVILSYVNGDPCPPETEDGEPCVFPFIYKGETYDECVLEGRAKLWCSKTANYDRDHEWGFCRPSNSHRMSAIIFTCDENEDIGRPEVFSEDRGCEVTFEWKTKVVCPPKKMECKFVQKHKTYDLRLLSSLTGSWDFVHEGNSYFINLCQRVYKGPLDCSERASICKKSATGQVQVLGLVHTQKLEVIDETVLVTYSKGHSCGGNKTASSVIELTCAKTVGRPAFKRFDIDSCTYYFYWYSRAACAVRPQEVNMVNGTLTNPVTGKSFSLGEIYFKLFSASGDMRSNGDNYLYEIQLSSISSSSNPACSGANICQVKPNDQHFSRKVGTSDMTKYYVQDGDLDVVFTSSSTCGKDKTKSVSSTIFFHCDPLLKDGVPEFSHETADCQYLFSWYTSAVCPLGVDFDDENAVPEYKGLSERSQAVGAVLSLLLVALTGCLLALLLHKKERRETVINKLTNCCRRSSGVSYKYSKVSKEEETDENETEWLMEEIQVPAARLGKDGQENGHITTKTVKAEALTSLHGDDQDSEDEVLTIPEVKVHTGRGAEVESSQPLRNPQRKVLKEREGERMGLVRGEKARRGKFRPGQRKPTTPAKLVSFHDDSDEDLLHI
T1 sequence (P09619 33-532): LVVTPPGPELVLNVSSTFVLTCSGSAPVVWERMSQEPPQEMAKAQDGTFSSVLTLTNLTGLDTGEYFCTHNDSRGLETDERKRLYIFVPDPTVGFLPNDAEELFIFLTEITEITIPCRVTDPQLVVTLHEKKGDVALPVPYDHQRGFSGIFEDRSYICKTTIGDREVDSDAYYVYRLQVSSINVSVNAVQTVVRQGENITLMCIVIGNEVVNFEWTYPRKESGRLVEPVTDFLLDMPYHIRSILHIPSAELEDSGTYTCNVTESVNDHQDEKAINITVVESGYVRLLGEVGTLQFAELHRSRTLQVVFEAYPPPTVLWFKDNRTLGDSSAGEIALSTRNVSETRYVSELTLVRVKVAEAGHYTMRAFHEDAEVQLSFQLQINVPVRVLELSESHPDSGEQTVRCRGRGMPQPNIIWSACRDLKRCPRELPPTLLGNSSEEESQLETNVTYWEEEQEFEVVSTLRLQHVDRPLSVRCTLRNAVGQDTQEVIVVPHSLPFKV

B1: SP26P: rPDGFRB binding VHH, SEQ ID NO: 153 (protein, listed as Lama glama)
VHH: EVQLVESGGGLVQAGGSLRLSCAASGRSFSSSVMGWFRQTPGKEREFVAATRWTAASTHYADSVKGRFTISRDHAENAVFLQMNSLKPEDTAVYYCAAGNYLDTAQYRYNYWGQGTQVTVSS
[1]
  binding epitope competition between SPO2P and SP26P: No competition
[2]
  Kd: 5.1 nM
[3]
  Kd: 0.3 nM

B2: test conjugate: 13F11-13E8-ABD conjugated to a Y27632-maleimide modified functional moiety (1e) (conjugate)
chain: EVQLVESGGRLVQPGDSLRLSCAASGRTFSDNAMGWFRQAPGKERRFVAGISWAGGSTYYSDSVKGRFTISRDNAKNTVYLQMNSLKPEDTAVYYCAAGLRAWVQRMPKDYNYWGQGTQVTVSSGGGGSGGGGSGGGGSEVQLVESGGGLVQAGGSLRLSCAASRSISPMGWYRQAPGKQRELVAIMPSSGPPIYADSVQGRFTISRDNAKNTVYLQMNSLKPEDTAVYYCNVGGGYWGQGTQVTVSS
modifications: non-natural residues; left off: large carriers; small tags and cut ends
[4]; BDL rats, one hour
  mean arterial pressure (MAP): remained constant
  portal pressure (PP): gradual decrease of portal pressure
[4]; SHAM rats
  portal or arterial pressure: neither the test conjugate nor the mock conjugate affected portal or arterial pressure
[5]; liver of BDL rats
  distribution of conjugate versus tissue distribution of IGF2R: overlapped with the (tissue) distribution of IGF2R; also recorded: displays co-localization with IGF2R
[5]; [10]
  detection of conjugate in liver of BDL rats: clearly detected
  detection of conjugate in liver of SHAM rats: not in the healthy liver of SHAM rats

B3: 13F11: VHH targeting IGF2R, SEQ ID NO: 273 (protein, listed as Lama glama)
VHH: EVQLVESGGRLVQPGDSLRLSCAASGRTFSDNAMGWFRQAPGKERRFVAGISWAGGSTYYSDSVKGRFTISRDNAKNTVYLQMNSLKPEDTAVYYCAAGLRAWVQRMPKDYNYWGQGTQVTVSS
[6]; construct conjugated to Alexa Fluor 647, direct read out
  Kd: 1 ± 0.61 nM
[6]; unconjugated VHH, one-site specific binding
  Kd: 0.23 ± 0.05 nM
[7]
  internalization in A549 cells: no internalization was observed
[8]
  internalization in hIGF2R transfected NIH 3T3 2.2 cells: did internalise
[9]
  internalization in mock transfected NIH 3T3 2.2 cells: did not internalize
